Holding throughout (assay): co-IP
Assay [1] addresses myc-UBQLN1 (human) (human) (UniProt Q9UMX0).
Assay [2] concerns the target Rv1566-V5 (Mycobacterium tuberculosis).
The target of assay [3] is Rv1926c-V5 (Mycobacterium tuberculosis) (UniProt P9WIP1).

We go through two substances from paper PMC4520715.

UniProt P9WIP1, sequence (P9WIP1 30-159): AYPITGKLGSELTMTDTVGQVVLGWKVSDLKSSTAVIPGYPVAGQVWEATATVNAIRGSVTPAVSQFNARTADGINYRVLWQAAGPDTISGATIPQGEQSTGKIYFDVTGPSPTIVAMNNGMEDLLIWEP

In the case of Rv1566-V5 (natural protein), the percent of the amount directly precipitated in assay [1] amounted to 7%. In assay [2], “myc-UBQLN1 (human) (from UniProt Q9UMX0 1-589) (natural protein)” came in with a percent of the amount directly precipitated of 7%. This substance yielded a percent of the amount precipitated directly with the myc antibody in assay [3] of 27%.
